“Also recorded” adds a separate entry of the source.
Columns and labels:
[1] = Fear extinction / return of fear in mice; type: in vivo, mouse; settings: female mice, infusion into infralimbic prefrontal cortex, VEH RET vs C29 RET, FIG. 12
Text: Baker-Andresen et al. Learn Mem. 2013 Apr. 15; 20(5):237-40.
Following fear conditioning (Example 17), exposure to the tone without the shock is termed extinction (removal of the memory).
Researchers can time the duration of this response. Repeated exposure to the tone without the shock is termed extinction (removal of the memory).

[2] = molecular target: T1, TrkB (Mus musculus, UniProt P15209); assay: Biotinylated peptide pull down of TrkB from NSC-34 cells; type: binding; settings: NSC-34 cell lysate, FIG. 4D
T1 construct: endogenous in cells; host or cells: NSC-34
Description: (§1) For peptide pull down assays, the biotinylated c29 or LC1 control peptides were incubated with protein A-sepharose beads or Dynabeads MyOne Streptavidin T1 (Invitrogen) overnight at 4° C. Cell lysates were then added to the peptide-protein A-sepharose complex or Dynabeads MyOne Streptavidin T1 and incubated for 3 hours at 4° C. Peptide-receptor complexes were washed extensively with RIPA lysis buffer and eluted by boiling in Laemmli sample buffer. For p75^NTR construct immunoprecipitations, HEK293 cells were treated with NGF at 50 ng/ml for 10 minutes 48 hours after transfection with 1 μg DNA per well. Cells were immediately harvested in ice-cold phosphate buffered saline (PBS) and washed twice, then lysed in 1 ml of lysis buffer. Cell lysates were pre-cleared in 75 μl (1:2) protein-G sepharose: PBS by rotation end-over-end for 2 hours at 4′C. Lysates were then incubated with 3-5 μg antibody, either mouse-anti-YFP/GFP (Roche) or rabbit-anti-human p75^NTR intracellular domain antibody (Promega), and rotated end-over-end for 2 hours at 4° C.
(§2) Immunoprecipitation was performed by the addition of 75 μl (1:2) protein-G sepharose: PBS and incubation end-over-end for 16 hours at 4° C. The immunoprecipitate was washed 4 times with 1 ml of PBS then eluted in 60 μl 2×LDS sample buffer. […]

[3] = molecular target: T2, EGF receptor (Homo sapiens, UniProt P00533); assay: Biotinylated peptide pull down of EGF receptor; type: binding; settings: lysate of transfected HEK293 cells, FIG. 4D
T2 construct: GFP; expressed in transfected cells; host or cells: HEK293
Description: as §1, §2

[4] = system: primary E13 motor neurons; assay: Primary motor neuron survival and growth factor withdrawal; type: cell-based, mouse
Description: Briefly, pregnant mothers were sacrificed by cervical dislocation and the uterus removed by Caesarean section and placed in Neurobasal medium. Lumbar spinal cords were dissected from E13 embryos on ice. Batches of 2 or 3 spinal cords were incubated in 1 mL 0.05% trypsin-ETDA for 10 minutes at 37° C. in 15 mL tubes. To prevent further trypsinisation, 0.14 mg/mL trypsin inhibitor solution was added and the tissue centrifuged at 100×g for 7 minutes, without acceleration or deceleration. The supernatant was removed and the spinal cord tissue was resuspended in 1 mL of Neurobasal Medium (NB). In order to obtain a single cell suspension, each batch of 2-3 spinal cords was agitated manually for 2 minutes. The suspension was allowed to settle and the supernatant collected after being filtered through a 100 μm sieve. The remaining tissue was further triturated ˜8 times through a P200 pipette and filtered through a 100 μm sieve. The combined supernatants were then separated by centrifugation on a 5 ml cushion of 9% (vol/vol) OptiPrep® gradient in NB containing 2% B27 supplement for 45 min at 850×g, without acceleration or deceleration. To prevent toxicity following Optiprep® separation, the layer containing MNs was harvested into 10 mL of NB containing 10% HS, and the cell suspension was centrifuged at 900×g for 7 minutes at 24° C., without acceleration or deceleration. The supernatant was removed and the cell pellet was resuspended in 1 mL of NB medium.
The number of viable motor neurons was counted on a haemocytometer using 0.08% trypan blue and neurons plated in 4-well culture dishes at a density of 3,000 cells per well in 100 μL NB containing 10% HS. […] Primary motor neurons were maintained at 37° C. in a humidified atmosphere with 5% CO2 and culture medium was replaced at day 1 and 3. Phase contrast images of motor neurons were taken using an Olympus (6IX81) microscope after motor neurons were grown in vitro for up to 7 days.
To assess the effects of c29 peptide on motor neuronal survival in limiting growth factor concentrations, isolated spinal motor neurons were plated and treated with 0.01, 0.1 or 1.0 ng/ml of BDNF in the presence of 1 μm PTD4-linked c29 or scrambled peptide, and cultured for 5 days with the addition of fresh BDNF and peptide treatments on day 2 and 4. For growth factor-withdrawal assays, following initial plating in 1 ng/ml of BDNF, CNTF or GDNF, cultures were washed four times with serum-free Neurobasal (NB) medium, after which the medium was replaced with medium containing 1-0.01 ng/ml of BDNF, CNTF or GDNF and 1 μM PTD4-linked c29 or scrambled peptides, as indicated. For assays investigating the effect of c29 on NGF-mediated motor neuron death, cultures were grown in 1 ng/ml BDNF, CNTF or GDNF for 1 day, before being treated with 100 ng/ml 2.5S NGF in and 1 μM PTD4-linked c29 or scrambled peptide, as indicated. Motor neurons were counted on day 1, and to assess the effects of various treatments days 3 and 5 (4 separate 10×10 grid fields of each well per experiment).

[5] = system: p75^FL; assay: Production of endogenous p75^CTF or p75^ICD fragments in p75^FL-transfected HEK293 cells; type: cell-based; settings: vs untreated cells, data not shown
[6] = system: TrkA; assay: Biotinylated peptide pull down of TrkA; type: binding; settings: lysate of transfected HEK293 cells, FIG. 4D
Description: as §1
Immunoprecipitation was performed by the addition of 75 μl (1:2) protein-G sepharose: PBS and incubation end-over-end for 16 hours at 4° C. The immunoprecipitate was washed 4 times with 1 ml of PBS then eluted in 60 μl 2×LDS sample buffer. For immunoblotting, samples were boiled for 5 minutes, separated by SDS-PAGE and transferred onto nitrocellulose membranes, then western blotted using standard protocols (see Example 1 for antibodies used).
The c29 peptide was labelled with biotin and attached to a sepharose bead column. Lysates from cells was passed over the column followed by several wash steps. The proteins that bound to the c29 peptide (proteins that are pulled down) were eluted from the column with SDS buffer and separated in size by SDS-PAGE electrophoresis. The gel was Western blotted and the membrane probed with antibodies to proteins of interest.

[7] = molecular target: T3, TrkAK538A (Homo sapiens, UniProt P04629, K544A); assay: NGF-FITC binding by flow cytometry, TrkAK538A-transfected HEK293 cells
T3 construct: expressed in transfected cells; host or cells: HEK293
Description: The NGF was conjugated to FITC by standard methods and detailed flow cytometry acquisition and analysis. For NGF-FITC conjugation 400 μg βNGF in 200 μl pH 8.5 NaHCO3 buffer was mixed with 5-10 μl of 10 mg/ml FITC in 100 μl DMSO for 10 hours at 4° C. on an orbital shaker set to 100 rpm. The excess FITC was removed by dialysis against 3 changes of 5 L of 10 mM Tris, 150 mM NaCl, 0.2% acetic acid, pH 8.2 for 24 hours at 4° C. Conjugate F/P characterization was determined by measuring absorbance at 280 nm and 495 nm according to manufacturer's instructions. Biological activity of the NGF-FITC conjugate was tested by performing PC12 cell neurite outgrowth assays unlabelled NGF, and comparing the levels of neuritogenesis. NGF-FITC conjugates were used within 4 weeks of synthesis.
For the flow cytometry NGF binding assays, fluorescence cell parameters of at least 20,000 events for PC12 cells and 100,000 events for HEK293 cells were acquired by flow cytometry list mode and measurements were performed on a single cell basis (with compensation for double event counting). Dead cells and debris were gated out of the analysis on the basis of forward scatter fluorescence, and mean, median and maximal fluorescence values of the gated cell populations were analysed using FACS Diva Software (Becton-Dickinson Biosciences) and FACS Express Software (Becton-Dickinson Biosciences).
Background fluorescence of HEK293 cells was non-transfected cells (±c29 or scrambled peptide treatment) treated with 26 nM NGF-FITC. For PC12 cells, the control population was cells that had not been treated with NGF-FITC. Analysis of real-time NGF-FITC receptor binding experiments was performed on 550,000-600,000 cells at 4° C. in serum free NB medium and binding kinetics were calculated from raw data files compressed to 50,000 binding events using FlowJo and MatLab Software. Data was plotted with the use of GraphPad Prism.
Only NGF-FITC preparations that promoted equivalent neurite outgrowth of PC12 cells to that of unlabelled NGF were used in binding experiments. To investigate NGF binding, PC12 or transfected HEK293 cells were serum starved for 4 hours, harvested, washed with Dulbecco's Modified Eagle Medium (DMEM), and counted. When used, c29 or scrambled peptide were added to cultures for the third hour of the serum starvation procedure. 1×10^7 cells/ml suspended in 500 μl of serum-free DMEM were incubated with 26 nM NGF-FITC on ice for 60 minutes before analysis. For binding competition assays, following 1 hour in NGF-FITC, cells were washed with ice-cold PBS containing 0.1% normal bovine serum and incubated on ice with unlabeled NGF at concentrations ranging from 100 pM to 10 μM for 30 minutes, then washed twice in PBS before being analysed on a BD Flow Cytometer FACS Scan (Becton-Dickinson).
To determine association rates, cells were harvested as above following serum starvation and peptide treatment, and were resuspended in 3 ml of serum-free Neurobasal (NB) medium containing […] (Invitrogen) and […] nonessential amino acids, prior to analysis on the flow cytometer. Cells were analysed for 30 seconds prior to the addition of 26 nM NGF-FITC, and then for 30 minutes in real time with an analysis rate of 200-300 events/sec.

[8] = system: TrkB-expressing cortical neurons; assay: Western blot of phosphorylated Erk1/2 in BDNF-treated cortical neurons; type: cell-based; settings: E16 cultured cortical neurons, 15 minutes after BDNF treatment
[9] = 26 nM NGF-FITC 60 minutes, + c29 c.f. TrkAK538A alone

T3 sequence (P04629 33-796 K544A): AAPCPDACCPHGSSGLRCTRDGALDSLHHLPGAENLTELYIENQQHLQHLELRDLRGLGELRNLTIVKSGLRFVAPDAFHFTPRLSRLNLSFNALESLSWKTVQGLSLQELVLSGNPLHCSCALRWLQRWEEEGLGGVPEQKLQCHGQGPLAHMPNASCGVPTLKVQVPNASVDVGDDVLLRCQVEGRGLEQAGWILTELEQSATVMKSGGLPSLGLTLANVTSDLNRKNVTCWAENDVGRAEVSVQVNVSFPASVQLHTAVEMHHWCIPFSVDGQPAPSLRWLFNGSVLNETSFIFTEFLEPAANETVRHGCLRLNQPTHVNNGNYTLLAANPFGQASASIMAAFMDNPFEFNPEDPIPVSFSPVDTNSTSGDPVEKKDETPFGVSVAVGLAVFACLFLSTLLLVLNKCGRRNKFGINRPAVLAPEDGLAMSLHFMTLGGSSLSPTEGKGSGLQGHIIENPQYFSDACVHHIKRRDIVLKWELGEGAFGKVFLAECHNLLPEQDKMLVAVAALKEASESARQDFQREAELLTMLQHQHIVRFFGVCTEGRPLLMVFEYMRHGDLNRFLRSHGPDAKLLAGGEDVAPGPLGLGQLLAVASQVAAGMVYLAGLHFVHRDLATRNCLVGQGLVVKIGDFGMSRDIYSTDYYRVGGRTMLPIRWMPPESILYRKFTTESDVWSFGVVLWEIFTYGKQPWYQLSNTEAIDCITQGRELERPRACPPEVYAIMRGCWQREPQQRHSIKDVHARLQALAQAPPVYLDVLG
T3 sequence (P01139 122-239 partner limits assumed): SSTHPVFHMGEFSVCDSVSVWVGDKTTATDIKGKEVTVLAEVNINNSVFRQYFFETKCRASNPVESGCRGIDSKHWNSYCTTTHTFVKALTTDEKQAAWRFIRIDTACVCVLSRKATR
T1 sequence (P15209 32-476 isoform P15209-2 limits assumed): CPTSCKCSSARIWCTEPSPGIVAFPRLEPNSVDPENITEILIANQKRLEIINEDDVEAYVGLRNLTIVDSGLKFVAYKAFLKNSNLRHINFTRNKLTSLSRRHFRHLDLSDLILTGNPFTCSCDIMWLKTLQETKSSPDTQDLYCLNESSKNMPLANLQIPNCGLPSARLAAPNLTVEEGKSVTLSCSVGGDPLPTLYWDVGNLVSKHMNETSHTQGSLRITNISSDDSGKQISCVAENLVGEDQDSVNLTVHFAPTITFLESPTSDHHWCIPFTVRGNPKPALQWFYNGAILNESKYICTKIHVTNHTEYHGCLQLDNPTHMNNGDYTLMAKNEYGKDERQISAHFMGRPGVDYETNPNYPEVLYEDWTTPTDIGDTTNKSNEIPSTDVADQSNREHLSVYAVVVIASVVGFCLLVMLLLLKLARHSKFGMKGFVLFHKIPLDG

KRWNSCKQNKQGANSRPVNQTPPPEGEKL (c29- Fragment of p75ICD) [29 amino acid peptide of the p75NTR juxtamembrane Chopper domain; delivered to cells linked to PTD4 or disulfide-linked carrier]
return of fear [1]: prevents the return of fear; also recorded: blocked the return of fear
pull down of endogenously expressed TrkB [2]: able to pull down endogenously expressed TrkB
pull down of EGF receptor [3]: did not pull down
NGF-induced cell death of motor neurons ([4]; 1 ng/ml BDNF plus NGF): significantly protected from NGF-induced cell death
neuronal survival after BDNF withdrawal ([4]; 10-fold lower BDNF, vs scrambled peptide): significantly increased neuronal survival
survival of motor neurons following CNTF or GDNF withdrawal ([4]; 10-fold lower CNTF or GDNF): no effect on the survival of motor neurons
motor neuron survival ([4]; BDNF 0.01-1.0 ng/ml, after 5 days, vs control cultures): increased survival
rate of production of endogenous p75^CTF or p75^ICD fragments [5]: did not differ significantly
pull down of TrkA [6]: able to pull down TrkA
% of cell population with FITC above background [7, 9]: 112.2 ± 5.3%
Maximal fluorescence per cell of the population [7, 9]: 128.0 ± 11.7%
Mean fluorescence per FITC-positive cell [7, 9]: 125.0 ± 12.1%
Median population fluorescence [7, 9]: 140.5 ± 21.3%
half time of NGF-FITC binding ([7]; 26 nM NGF-FITC, cells pre-treated with c29, average of 3 experiments): 3.6 min
faster association rate than untreated cells ([7]; Hill-Slope association curve fit): ~3 fold
total number of fluorescent cells, median, mean and maximal fluorescence ([7]; compared to control TrkAK538A-transfected cells): significantly increased
mean fluorescence of the population following receptor saturation, higher than untreated ([7]; ~20 minutes after NGF addition): at least 20%
phosphorylated Erk1/2 in response to BDNF [8]: enhanced trophic signaling

From patent US20150344535A1, “NEUROTROPHIN-TYROSINE KINASE RECEPTOR SIGNALING” (THE UNIVERSITY OF QUEENSLAND, priority 2012, published 2015)
